Consider 15 molecules from publication PMC314469, “Protein Interaction Networks by Proteome Peptide Scanning” (PLoS Biology, 2004).

Assay in all cases: SPOT array
For assay [1], the target named is T1, Yhr016c SH3 (YSC84_YEAST), P32793.
T1 chain: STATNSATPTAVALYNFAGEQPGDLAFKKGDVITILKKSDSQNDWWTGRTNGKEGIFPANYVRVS

The target of assay [2] is T2, Boi1 SH3 (BOI1_YEAST), P38041.
T2 chain: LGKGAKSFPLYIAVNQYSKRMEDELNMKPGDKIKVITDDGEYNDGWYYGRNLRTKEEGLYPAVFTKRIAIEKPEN

Assay [3] addresses T3, Rvs167 SH3 (RV167_YEAST), P39743.
T3 chain: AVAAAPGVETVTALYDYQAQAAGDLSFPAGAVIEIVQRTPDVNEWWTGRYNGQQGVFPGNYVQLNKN

Assay [4] addresses T4, Yfr024 SH3 (LSB3_YEAST), P43603.
T4 chain: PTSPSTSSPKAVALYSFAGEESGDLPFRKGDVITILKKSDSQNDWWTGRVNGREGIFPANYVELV

Assay [5] deals with T5, Boi2 SH3 (BOI2_YEAST), P39969.
T5 chain: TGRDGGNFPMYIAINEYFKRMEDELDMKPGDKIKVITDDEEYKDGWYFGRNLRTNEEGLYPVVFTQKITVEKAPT

B1: YIL054W 33-46 (peptide)
chain: YTNPRAPGKLQDSH
As to B1, the normalised SPOT signal, Boehringer light units (BLU); mean over the file's lines of this peptide came out at 238 in assay [1]; 153 in assay [2]; 64.7 in assay [3]; 478 in assay [4]; 26.1 in assay [5].

B2: YDL246C 91-104 (peptide)
chain: AIEPGVPSRYSDET
For B2, the normalised SPOT signal, Boehringer light units (BLU); mean over the file's lines of this peptide in assay [1] was found to be 153; in assay [2], 63; in assay [3], 35.9; in assay [4] it was 151; in assay [5], 22.8.

B3: YLR305C 1424-1437 (peptide)
chain: YWAPVSPLKSINLF
Take B3: the normalised SPOT signal, Boehringer light units (BLU); mean over the file's lines of this peptide in assay [1] stood at 168; in assay [2] it was 104; in assay [3], 25.1; in assay [4], 1590; in assay [5] it was 231.

B4: YGL073W 526-539 (peptide)
chain: AGSPIRPYKQRYLL
Consider B4, for which the normalised SPOT signal, Boehringer light units (BLU); mean over the file's lines of this peptide in assay [1] was found to be 180; in assay [2], 744; in assay [3], 343; in assay [4], 1770; in assay [5], 352.

B5: YAR061W 26-39 (peptide)
chain: ASLPVGPRKNGMNV
B5: the normalised SPOT signal, Boehringer light units (BLU); mean over the file's lines of this peptide in assay [1] amounted to 167; in assay [2], 158; in assay [3], 170; in assay [4] it was 619; in assay [5] it was 88.

B6: YNL330C 36-49 (peptide)
chain: AGHPMKPHRIRMAH
B6: the normalised SPOT signal, Boehringer light units (BLU); mean over the file's lines of this peptide in assay [1] was found to be 895; in assay [2], 138; in assay [3], 279; in assay [4], 6490; in assay [5], 162.

B7: YKL108W 203-216 (peptide)
chain: YYGPNSPLKLDEEN
Turning to B7, the normalised SPOT signal, Boehringer light units (BLU); mean over the file's lines of this peptide was 36 in assay [1]; 0 in assay [2]; 49.9 in assay [3]; 0 in assay [4]; 12.4 in assay [5].

B8: YIL162W 315-328 (peptide)
chain: AFVPTNPWRSSMSL
For B8, the normalised SPOT signal, Boehringer light units (BLU); mean over the file's lines of this peptide is 58.7 in assay [1]; 294 in assay [2]; 57 in assay [3]; 840 in assay [4]; 39.8 in assay [5].

B9: YCR088W 446-459 (peptide)
chain: AAQPPLPSRNVASG
In the case of B9, the normalised SPOT signal, Boehringer light units (BLU); mean over the file's lines of this peptide in assay [1] was found to be 107000; in assay [2], 98.4; in assay [3], 59700; in assay [4], 47300; in assay [5], 62.8.

B10: YLR029C 39-52 (peptide)
chain: AARPTRPDKARRLG
As to B10, the normalised SPOT signal, Boehringer light units (BLU); mean over the file's lines of this peptide in assay [1] was 194; in assay [2], 173; in assay [3], 109; in assay [4] it was 4960; in assay [5], 198.

B11: YKR028W 957-970 (peptide)
chain: YTTPKTPPRPKTIL
Turning to B11, the normalised SPOT signal, Boehringer light units (BLU); mean over the file's lines of this peptide in assay [1] is 27400; in assay [2] it was 42.6; in assay [3], 1060; in assay [4] it was 28800; in assay [5], 53.6.

B12: YLR144C 7-20 (peptide)
chain: AIPPPVPNRPGGTT
On to B12, for which the normalised SPOT signal, Boehringer light units (BLU); mean over the file's lines of this peptide in assay [1] was determined as 6020; in assay [2] it was 10.1; in assay [3], 186; in assay [4], 11200; in assay [5], 23.8.

B13: YGR031W 269-282 (peptide)
chain: AAWPLDPARERWTR
As for B13, the normalised SPOT signal, Boehringer light units (BLU); mean over the file's lines of this peptide was determined as 134 in assay [1]; 549 in assay [2]; 25.5 in assay [3]; 300 in assay [4]; 52.7 in assay [5].

B14: YKL104C 225-238 (peptide)
chain: AGQPEIPLKSNNKS
With B14, the normalised SPOT signal, Boehringer light units (BLU); mean over the file's lines of this peptide in assay [1] amounted to 102; in assay [2], 69.5; in assay [3], 0; in assay [4] it was 1260; in assay [5], 33.5.

B15: YIR003W 42-55 (peptide)
chain: AGTPNVPTRRPILK
As to B15, the normalised SPOT signal, Boehringer light units (BLU); mean over the file's lines of this peptide in assay [1] stood at 4390; in assay [2] it was 4210; in assay [3], 448; in assay [4], 24700; in assay [5] it was 26.9.
